Paper PMC11228049

What was measured:
[1] = target: untagged βarr2 (UniProt P29067); experiment: ITC; βarr1 (15 μM) or βarr2 (20 μM) in the sample cell, 400 μM Gβγ C68S in the syringe; 25 °C; 20 mM HEPES, 150 mM NaCl, 0.02% DDM, pH 7.4; an additional early binding site was excluded, the rest fitted to a one-site model
[2] = target: untagged βarr2 (UniProt P29067); experiment: ITC; βarr form in the sample cell, WT Gβγ in the syringe; 25 °C; 20 mM HEPES, 150 mM NaCl, 0.02% DDM, pH 7.4; one-site model
[3] = target: βarr2 in excess V2Rpp (UniProt P29067); experiment: as above

UniProt P29067, sequence (P29067 whole entry): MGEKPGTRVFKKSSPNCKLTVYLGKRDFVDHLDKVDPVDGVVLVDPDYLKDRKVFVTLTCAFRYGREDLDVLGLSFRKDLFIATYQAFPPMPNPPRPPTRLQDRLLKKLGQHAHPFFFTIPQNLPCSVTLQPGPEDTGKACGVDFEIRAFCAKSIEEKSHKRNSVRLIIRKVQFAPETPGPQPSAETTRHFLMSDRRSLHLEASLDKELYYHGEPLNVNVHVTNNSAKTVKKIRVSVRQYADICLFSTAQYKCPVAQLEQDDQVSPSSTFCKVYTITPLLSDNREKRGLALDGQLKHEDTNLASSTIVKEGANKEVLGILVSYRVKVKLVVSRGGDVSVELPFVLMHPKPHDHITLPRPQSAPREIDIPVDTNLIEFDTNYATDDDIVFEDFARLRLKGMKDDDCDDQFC

Substance “Gβ1γ2 with a C68S mutation in Gγ2 (from UniProt P62873 1-340; P59768 1-71) (complex)” has a Kd [1] of 900 nM.
“recombinant purified WT Gβ1γ2 (from UniProt P62873 1-340; P59768 1-71) (complex)” gave a Kd [2] of 1500 nM, a stoichiometry N [2] of 1 site and a Kd [3] of 1800 nM. It also gave a stoichiometry N [3] of 1 site.
